{"source": "a protein production outcome set (Wang et al. 2014)", "assay": "label from the status in PepcDB records"}
{"sequence": "MSQLEKAQAEYAGFIQEFQSAIISTISEQGIPNGSYAPFVIDDAKNIYIYVSGLAVHTKNIEANPLVNVLFVDDEAKTNQIFARRRLSFDCTATLIERESQKWNQVVDQFQERFGQIIEVLRGLADFRIFQLTPKEGRFVIGFGA", "values": [{"measurement": "protein production", "result": "not failed"}]}
{"sequence": "ARLVQLSRHSIAFPSPEGALREPNGLLALGGDLSPARLLMAYQRGIFPWFSPGDPILWWSPDPRAVLWPESLHISRSMKRFHKRSPYRVTMNYAFGQVIEGCASDREEGTWITRGVVEAYHRLHELGHAHSIEVWREDELVGGMYGVAQGTLFCGESMFSRMENASKTALLVFCEEFIGHGGKLIDCQVLNDHTASLGACEIPRRDYLNYLNQMRLGRLPNNFWVPRCLFSPQE", "values": [{"measurement": "protein production", "result": "not failed"}]}
{"sequence": "MTLGSQHSPLFALVQETLRKRILSGAYAQGERLVEGDLAEEMGVSRIPVREALRALAAAGLVRIEPRRGASVASLSPEHARDIVEVRATLEALNARLAAQRRNPQQVADMDRAIRDGAHACERGDTAALVEQNRHFHELLGGVSTNAVLQDLMRSLRDRTALLFARNSVTRAADILDEHAGILQAVTAGDADLASLLAARHVHNAAQWYFERPVDRKAVAADTD", "values": [{"measurement": "protein production", "result": "failed"}]}
{"sequence": "MSGHDHGDDGVNRRKVLECMTWAGTGVLWTITGGVPRSLGIIDSAQAATAAAPGMTFLQISDSHVGFDKPANPNALGTLEEAINKINAMPAKPSFMIHTGDITHLSKAAEFDNAERIISQTKLDVHYVPGEHDFIDEEVKLYRERYGRGTKGHGWYSFDAGGVHFVGLVNVVDLKAGGLGNLGAEQLAWLEDDLRGKSKSTPVVLFAHIPLWTVYPEWGWGTEDGGRALEYVKGFGSVTVLNGHIHQVMQKVEGNVTFHTARSTAFPQPAPGAAPSPGPMKVEDARLRSMLGVASINFKQNEQRLAIIDTPLQG", "values": [{"measurement": "protein production", "result": "failed"}]}
{"sequence": "MSDTLYIKMDQAVEITKKQVTVGDVAKLQCKNKNITNRLKSMKLLEDTTKGKKRYIVSIMKIIEMADQTFQNVDIQNIGETECVVEFKTPKKDDGPM", "values": [{"measurement": "protein production", "result": "not failed"}]}
{"sequence": "MLRTEHYAFLPCISRALEERDSLGIRRELRARQQRLSMQQSRSKLGRVCVTGANSPLGQELVGALTRTPDPSLRPDAIGVIGARDPIESHSAGAGLHFPGPGVDFLECAATDLEHYNPRTLFSINDDDLGLRRRSIFRENQVVIDLLRAQGETNEPRSKTRLVLVTLLGCGDSEDAIPSQAFDVLRPLLLELSRVEQYVRESGLPYTIVRPGALEHGDADSRAIVSESKVGFGTIHRSTLAHLLLNVAASEKAVNKTLMALDMNRLLVAAPYVRPFEVWESPPFEVFDL", "values": [{"measurement": "protein production", "result": "not failed"}]}
{"sequence": "MKPILALLSLLALPVMAAEPTLYGRYENIKVLEIGQTFKAKMDTGALTASLSAKDIELFQRDGDDWVRFRLATKGADDKVYEHKVSRISKIKGRAEGDDEDDEGINPAKRPVVDLELCLGNKKRTVEVNLVDRSHFNFPLLIGAKALREFGAAINPARRYTADEPDC", "values": [{"measurement": "protein production", "result": "not failed"}]}
{"sequence": "MNSFWTFLQLIFVILQVTSLALYALLPAPWSDTVLVAMILFSLIIGIVIWWWSRRNALTAPFRQPFLSSDSLQLFEQVFNDLPTRVYWRDPELKLLGGNRAFANDFGIDPESLAGKTDAEIDSLASNDVLLERDRKTFSQQAPSVNAEIELKVSGKSQWVEHSSVPLYDDDHNIIGILGSYYDISGIKSVAEEMEKAKETAERANQSKGEFLANMSHEIRTPINAIVGMANLCLKTELTQKQKRYIKVIDSSSQALLGVINDILDFSKIDAGKLTVERIPFDLQDVLTSLADMFAYRAYDKDLEFIINLPANIPTRLIGDPLRLNQVLVNLISNAIKFTEDGEINVAVNLLDSSRDNVLLRISVTDTGIGMDEEQRANLFKAFTQADTSTTRKYGGTGLGLAISRRLILLMGGDIGVTSAAGQGSTFYIEVELPLQTEQDNSHHQYLLQKLKGVRILAIDDNLSTREMLYEMLRSYQVDVKVCRTAEQALQVFQLSVEDNNPYQLVLVDWRLPGMDGLEFCQKITERYAEDIRPKMTLATGYYAEELSEKAKQAGVNDIISKPFTASTLGRSLTSTLFQRELSDADDADSGDGIPESILRAPILVVEDNEINQQVAREILSSHKFKVDIVENGQLAVEAVHNKNYSLVLMDIQMPVMDGLKAAQTIRADFNYQQLPILAMTANAMSGDEERSLAAGMQGHIAKPIDEQQLIKAIIKWAVPGDYTNNQQPEVPPESKQDEVNKPPVRIPQVKGIEFETALKRLQYNVELYLKLVEQLYETYQGSATKVSDFITRGQHESARRYFHSLKGAAANLGFTQLQSKAADLEQFMAEGNIDKVADQITELEKRLRYAHQAAVDLEAIQQHQS", "values": [{"measurement": "protein production", "result": "failed"}]}
{"sequence": "MPSSSQYRRYQDPHHPSIPTPTTLFSQPSLEILGGGVAEELPELALCCDGTVVEGRSNCRCKARAVLPGGMRVRLSKTLAGILRHHPGRYGVRLTREGWARVSEVVEGLRKAGWSWVEEWHIVGVALHDPKGRYELRNGEIRARYGHSIPVNVEPLPGEPPPILYHGTTEEALPLIMERGIMRGRRLKVHLTSSLEDAVSTGRRHGNLVAVLLVDVECLRRRGLKVERMSKTVYTVDWVPPECIAEVRRESLGRSL", "values": [{"measurement": "protein production", "result": "not failed"}]}
{"sequence": "RTRHLFEMTRELSRALTLEEVVRTSYHFLSSAFDAKVCLLMPNHHGELTPYNAEGMGQLPIDSGIARWCWDKDQIAGAGTDTLPSVPYQLHPISASQQVLAILAIEPNNLRQVLIPEQQQLLQTFNGLIANALERLQQAEMAEQSRINIEREQ", "values": [{"measurement": "protein production", "result": "not failed"}]}
{"sequence": "MYFLLNLVGLIVIMAVVFLCSPQKKKIKWRPIITLIVLELLITWFMLGTKVGSWAIGKIGDFFTWLIACASDGIAFAFPSVMANETVDFFFSALLPIIFIVTFFDILTYFGILPWLIDKIGWVISKASRLPKLESFFSIQMMFLGNTEALAVIRQQLTVLSNNRLLTFGLMSMSSISGSIIGSYLSMVPATYVFTAIPLNCLNALIIANLLNPVHVPEDEDIIYTPPKEEKKDFFSTISNSMLVGMNMVIVILAMVIGYVALTSAVNGILGVFVHGLTNQTIFAYLFSPFAFLLGLPVHDAMYVAQLMGMKLATNEFVAMLDLKNNLKSLPPHTVAVATTFLTSFANFSTVGMIYGTYNSILDGEKSTVIGRNVWKLLVSGIAVSLLSAAIVGLFVW", "values": [{"measurement": "protein production", "result": "failed"}]}
{"sequence": "MLWHVFYGRGRMLLSNHAQGRNFRPIFVMSDPISWTAEATERLKEIPFFVRPAARKKIENFAREAGITEITETVYEQAKQKFN", "values": [{"measurement": "protein production", "result": "failed"}]}
{"sequence": "MKSLQIYLFLFLSVFALGACIQNDIPYPYIKGEITAFEVEGQTGDAEINKNSRTIVVEVGDEVDIEELRITRFVVNEEATYSIDEQYCVSPNKFPSAGFSALADLPAGADTRVDFSKTVPVLLRTYQDYQWMITVKQTIERVVEVENQALPAIIDDKNHTVLVYVSQKQDLSAVKITKMILGGSKATITPDPSTVTNFRRPQEFVVNRFDKEELWTVDVVRTTSTGTTGSADVWATRATLNGGMKQGTTPRVEYRKKSEDTWTVVPETDVKLESGTTFSTTLTGLQDGTDYVWRVVVEEVPSTESGFTTEKIQEIPNLNFDTWSQNPTGTFKKSWYPNADGSNSFWATGNDGVTSSLAGSRDSSTRPEEKSVVNGKAAYMVTLGSVPLVGVAAGNLFIGDYKTNAQSPLEHHHHHH", "values": [{"measurement": "protein production", "result": "failed"}]}
{"sequence": "ADGILVVDLKGNIEFCNQQFLKMWGIAPGFIDSHNDTETIQYVLNQLKNPEEFLKQIKELYNNPKQESFDELHFKDGKIFERYSQPHWLDN", "values": [{"measurement": "protein production", "result": "failed"}]}
{"sequence": "MKSKNQFFVSLLLKSTLVFSSFLMFADISRGQATVSISQQKILAQALTNQEREELTRLRAEKGERAQIQADFEQAFSRTTVLLNIWLVILSLFPVAIIALFWLLRRVAIREIVNRAMSQFEGIEKLETQLIIVKQDAENLIQDAKSINRLLEREIESLQQKIKIEQENLSVVTSELLQAKTDNLAQITTEIANFQSKLESLVGEFAHRLTQSDSDTKKQRDITLENIIKIESLLEVQLTELQKEAERHQKAVLGNIDTAGVDFNNYLINLQAEAQKNKNSVFEDFSHFQAELQGDLQQQKDIQLGNIQEVANIFNNQVSELQLEAQKQKDSLDNNLNKLHTDAQIRKDKIIHRLEELKDLFQAQVAELQIQTQQELASYLSELKIDTGNSKEKIIEELEKSGSEFVSQFSELQHNAQQQKLLILQKLEKLETDFVNQLSELQLDAQRRKDVILQELAENQPPVVVEAQPIHKDQLEVLVNENEQPQLSFDECIEQGDSLFSQKSYEEAITCYEQAVKIQQDNAVAWFKHGLTLARLKRFKDAIKSYHQAIKIKPDYHQAWCDLGVAFGNIRRHQEAFAAFDKATQVKPDDAVVWLNRGLALIELEEYEEAIASFDQALELQPNSPKIWDKRGYSLVRLGRDDEAITSFNQALEIKPEYASAYYNKAACYAMQGDVNSSLENLQQAIILNPKYKEDAATDIDFDEIAGDEKFKQLIATIGIRFDF", "values": [{"measurement": "protein production", "result": "failed"}]}
